B1: hCDIFA-34 (antibody, V domains shown)
VH: QVQLVESGGDLIQPGESLRLSCVASGFTVGSHYMTWVRQAPGKGLEWVSTIYSGGTTKYADSVKGRFTISRDNSKNTLFLQMNSLRTEDTAVYFCARGSAFSSSWWLVDFWGQGTLVTVSS
VL: SYELTQPPSVSVAPGKTARITCEDNYVGGNNVHWYQQKPGQAPVLVVSDDNARPSGIPERVSGSKSGNTATLIINRVEVGDEADFYCQVWDSSRDRVLFGGGTKLTVLG
B2: hCDIFA-3 (antibody, V domains shown)
VH: EVQLVESGGGVVQPGRSLRLSCAASGFTFSSYAMHWVRQAPGKGLEWVAVISKDGDNKYYTDPLKGRFTISRDNSKNTLYLQMISLRGEDTAVYYCARDLNIWSGYYLRTINYYMDVWGKGTTVTVSS
VL: DIVMTQSPSFLSASVGDRVTITCRASQGIRNDLGWYQQKPGKAPKLLIYAASTLQSGVPSRFSGSGSGTEFTLTISSLQPEDFATYYCQQPGSHPPFGGGAKLEIKR
B3: hCDIFA-18 (antibody, V domains shown)
VH: QVQLVQSGAEVKKPGASVKVSCKASGYTFTSYAMHWVRQAPGQRLEWMGWINAGNGNTKYSQEFQGRVTITRDTSASTAYMELSSLRSEDMAVYYCARAHLPGYCSSTSCYIMYVWGKGTTVTVSS
VL: not shown
B4: hCDIFA-28 (antibody, V domains shown)
VH: QVQLVQSGAQVKKPGSSVKVSCKASGYAFISYGITWVRQAPGQGLEWMGWISAYNGDTNYAQKFQGRVTMTTDTSTNTAYMELRSLRSDDTAVYYCARALTRVAVALPHPYWGQGTLVTVSS
VL: not shown
B5: hCDIFA-12 (antibody, V domains shown)
VH: QVQLVQSGAEVKKPGASVKVSCKASGYTFSDSYMHWVRQAPGQGLEWMGRINPNSGGTNYAQKFQGRVTMTRDTSIKTVYMELSRLRSDDGAIYYCARGMGRTTTGLFDLWGQGTLVTVSS
VL: DIVMTQSPATLSLSPGERATLSCKANESVGSYLVWYQQKFGQAPRLLIYDASNRATGIPARFSGSGSGTDFTLTISSLEPEDFAVYYCQQRSNWPPTFGGGTKVDIKR
B6: hCDIFA-14 (antibody, V domains shown)
VH: EVQLVQSGAEVKKPGSSVKVSCKASGGTFRSYAISWVRQAPGQGLEWMGGFIPIPGIRNYAQKFQGRLTISADESTSTGYMELSSLTSEDTAVYYCARGLGRVSHYFYYMDVWGKGTTVTVSS
VL: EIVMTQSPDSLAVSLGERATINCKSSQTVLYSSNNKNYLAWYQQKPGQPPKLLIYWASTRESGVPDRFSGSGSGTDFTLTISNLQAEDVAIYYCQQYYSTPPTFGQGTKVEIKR
B7: hCDIFA-16 (antibody, V domains shown)
VH: QVQLQESGPGLVKPSETLSLTCTVSGDSISDYYWSWIRQPPGRGLEWIGYIYYSGSTNYNPSLKSRLTISVDTSKNQFSLNLSSVTAADTAVYYCARSMGHYDFWNTYFPCFDPWGQGTLVTVSS
VL: EIVMTQSPGTLSLSPGERATLSCRASQSVSSGYLAWYQQKPGQAPRLLIYGASSRATGIPDRFRGSGSGTDFTLTISRLEPEDFAVYYCQQYGSSPLTFGGGTKLEIKR
B8: hCDIFA-13 (antibody, V domains shown)
VH: QVQLVQSGAEVKKPGASVTVSCRTSGYTFTNDYVHWVRQAPGQGLEWVGLINPSGGNTVYAQSFQGRVTMTRDTSTSTVYMELSSLRSEDTAVYYCARVVHDYGKFDPWGQGTPVTVSS
VL: SYELTQPASVSGSPRQSITISCTGTSSDVGNYNLVSWYQQYPGKAPRLIIFEVRQRPSGVSNRFSGSKSGNTASLTISGLQAADEADYYCCSYAGRSIWVFGGGTKLTVLG
B9: hCDIFA-30 (antibody, V domains shown)
VH: EVQLVESGAEVKRPGASVKVSCRTSAYAFTNYFMHWVRQAPGQGLEWVAVINLSGGNTNYAQSFQGRVNMTRDTSTSTVYMELSSLRSEDTAVYFCAIGGIWFGEYPNWFDPWGQGTLVTVSS
VL: NFMLTQPPSVSAAPGRKVTVSCSGSSSNIGNNYVSWYQQFPGTAPKLLIYDNNKRHSGIPARFSGSKSGTSATLGITGLQTGDEADYYCATWDSSLKYVVFGGGTKLTVLG
B10: hCDIFA-22 (antibody, V domains shown)
VH: QVQLVQSGGGLVQPGGSLRLSCSASGFTFSSYAMHWVRQAPGKGLEYVSAISSNGGSTYYADSVKGRFTISRDNSKNTLYLQMSSLRAEDTAVYYCVRAAAGNWFDPWGQGTLVTVSS
VL: AIRMTQSPSSVSASVGDRVTITCRASQGISSWLAWYQQKPGKAPKLLIYAASSLQSGVPSRFSGSGSGTDFTLTISSLQPEDFATYYCQQANSFPLTFGGGTKVDIKR
B11: hCDIFA-36 (antibody, V domains shown)
VH: QVQLVQSGGGLVQPGRSLRLSCAASGFAFDDYALHWVRQVPGKGLEWVSGISWNSDSIAYADSVKGRFTISRDNAKNSLYLQMNGLRAEDTALYYCAKDRTIASAGIPDEFQHWGQGTLVTVSS
VL: DIVMTQSPATLSVSPGERATLSCRASQSVSYKVAWYQQKPGQAPRLLIYGASTRDTGIPARFSGSGSGTDFTLTISSLQSEDSAVYYCQQYSNWPTTFGQGTKVEIKR
B12: hCDIFA-20 (antibody, V domains shown)
VH: EVQLVQSGAEVRIPGASVKVSCKASGFTFNDYYIHWVRQAPGQGLEWMGWINAHNGVTSYAQNFQDRVTMTRDTSITTAYMDLSRLRSDDTAVYYCARDCSTSSCFDHWGQGSLVTVSS
VL: SYELTQPPSLSVAPGKTAKITCGGNNIGSKGVHWYQQRPGQAPVLVIYYNADRPSGIPERFSGSNSGNTATLTISRVEAGDEADYFCQVWDGDSAHRVFGGGTKLTVLG
B13: hCDIFA-23 (antibody, V domains shown)
VH: QVQLVQSGGGVVQPGRSLRLSCAASGFTFSQYSIHWVRQAPGKGLEWVAVMSYDGRNKYYADSVKGRFTISGDNSRNTLYVQMNSLRAEDTAIYYCARDLIKAAMVPAFDIWGQGTMVTVSS
VL: TALTQPRSVSGSPGQSVTISCTGTNSDVADYNYVSWYQHHPGKAPKLMIYDVTKRPSGVPDRFSGSKSGNTASLTISGLQAEDEADYYCCSYAARYTFGGGTKLTVLG
B14: hCDIFA-38 (antibody, V domains shown)
VH: QVQLVESGPALVKPTQTLTLTCTFSGFSLSSIGMCVSWIRQPPGKALEWLARIDWDDSKYYSPSLQARLAISKDTSKNQVVLTMTNVDPMDAGTYYCARTSATLTGPSRVFDYWGQGSLVTVSS
VL: DVVMTQSPATLSVSPGERATLSCRASQSVRFNLAWYQQKPGQAPRLLISGASTRATGIPARFSGSGSGTEFTLTISSLQSEDFAVYYCQQYNNWPPLTFGGGTKVEIKR
B15: hCDIFA-39 (antibody, V domains shown)
VH: QVQLQESGPGLVKPSETLSLTCTLSGGSISSDNYYWGWVRQPPGKGLEWIGSIYYSGSTYYNPSLKSRVFISVDMSKNQFSLKLSSVTAADTAVYYCARHTQGLGILRYFDWWTRPFDYWGQGTLVTVSS
VL: DIQMTQSPSSLSASVGDRVTITCRASQNINTYLSWYRQKPGKAPELLIYAASNLQSGVPSRFSGSGSGTDFTLTIHSLQPEDFATYYCQQSYTTLTFGGGTKVEIKR
B16: hCDIFA-2 (antibody, V domains shown)
VH: QVQLVESGGGLVQPGGSLRLSCAASGFTFSSYAMSWVRQAPGKGPEWVSNIIGSGGSTYFTDSVKGRFTISRDNSKNTVYLQMNSLRAEDTAVYYCAKEGCRGYDSGNYFAPKMFCLWGQGTLVTVSS
VL: NFMLTQPASVSGSPGQSITISCTGTSSDIGAYNYVSWYQQHPGTAPKLMIYEVSHRPSGVSNRFSGSKSGDTASLTISGLQAEDEADYYCSSYTTSITYVFGTGTKLTVLG
B17: hCDIFA-33 (antibody, V domains shown)
VH: QVQLVQSGGGLVQPGGSLRLSCVASGFTFSSYAMTWVRQAPGMGLEWVSTISLSGSTIYYADSVKGRFTISRDNPKNTLYLQMNSLRAEDTAVYYCAEGQGAFDFWGQGTMVTVSS
VL: NFMLTQPPSASGTPGQRVTISCSGSTSNIGGNTVNWYQQLPGTAPKLLIYSNIQRPSGVPDRFSGSKSGTSASLAIRGLRSEDEADYYCSTWDDSRKGVVFGGGTKLTVLG
B18: hCDIFA-29 (antibody, V domains shown)
VH: EVQLLESGAEVKKPGASIRVSCKASGHSFTDSFTDYYFHWVRQAPGQGLEWMGMINPSVGSTNYAQKFQGRVTLTRDTSTHTVYMELSSLRSEDTAVYFCARDPWFCSRGTSCYYFGLWGQGTLVTVSS
VL: DIQLTQSPSSLSASVGDSVTITCRASQSISTYLNWYQQKPGKAPKLLIYDASSLLSGVPSRFSGGGSGTDFTLTISSLQPEDFATYYCQQSDISPPVFGRGTKVEIKR
B19: hCDIFA-48 (antibody, V domains shown)
VH: QVQLVQSGAEVKKPGASVKVSCKASGYTFTTYAMHWVRQAPGHRLEWMGWINPVNGNSKHSQNFQGRVTITRDTSASTVYMELSSLRSEDTAVYYCARDTSSGVILANNFDYWGQGTLVTVSS
VL: DIVMTQSPATLSLSPGERATLSCRASQSVDSYLTWYQQKPGQAPRLLIYDSSNRATGIPARFSGSGSGTDFTLTISSLEPEDFAVYYCHQRSNWPNTFGQGTKVEIKR
B20: hCDIFA-26 (antibody, V domains shown)
VH: EVQLLESGAEVKKPGESLRISCNCSGYSFTSYWIGWVRQMPGEGLEWMGLIQPGGDSYPRYSPSFQGQVTISADKSISTAYLQWRSLKASDTAMYYCARRGFDHWGQGTLVTVSS
VL: NFMLTQPPSASGAPGQRVTISCSGSSSNIGSNTVNWYQQLPGTAPKLLIYSNIQRPSGVPDRFSGSKSGTSASLAISGLQSDDEADYYCSAWDDSLNGYVFGTGTKVTVLG

Molecular target: C. difficile toxin A (Clostridium difficile, UniProt P16154 1-2710)
Assay: cell-based or functional assay

Binder	EC50 TcdA [RLU], toxin neutralization assay (TNA) on IMR90 cells
B1	247 RLU
B2	199000 RLU
B3	1330 RLU
B4	25800 RLU
B5	~115 RLU
B6	19800 RLU
B7	298 RLU
B8	26300 RLU
B9	1480 RLU
B10	~16 RLU
B11	426000 RLU
B12	3200 RLU
B13	136 RLU
B14	10500 RLU
B15	400 RLU
B16	~38 RLU

Molecular target: T1, genetically modified and chemically inactivated C. difficile toxoid A (Clostridium difficile, UniProt P16154 2-2710)
T1 construct: also called TxdA; the toxoid
Assay: ITC

Binder	DH	Kd	Stoichiometry
B17	-12.6 kJ/mol	0.031 µM	0.83
B18	-65.3 kJ/mol	0.074 µM	9.2
B19	-30.1 kJ/mol	0.087 µM	0.77
B20	-38.1 kJ/mol	0.008 µM	1.98

Source: patent US20230218735A1 (Pfizer, published 2023)
